The results in this text go back to PMC8457657.

The series addresses pseudotyped SARS-CoV-2 (spike on lentivirus), active (SARS-CoV-2) (UniProt P0DTC2). The series is described as follows: ELONA. The conditions noted are these: pH 7.2, pH 7.4, room temperature ([…], MST 10 min).

For the sequence “CCCGACCAGCCACCATCAGCAACTCTTCCGCGTCCATCCCTGCTG [SARS2-AR10]”, the Kd (in general, the free concentration of one partner at which half of the binding sites on the other are occupied at equilibrium, for simple one-to-one binding) is 79 nM.
